For this experiment, the target named is SARS-CoV-2 S1 WT (in-house) (SARS-CoV-2, UniProt P0DTC2). Description: SPR.

The text below walks through data of paper doi:10.1101/2021.03.17.435802 (bioRxiv, 2021).

B1: REGN10987 (antibody, V domains shown)
VH: QVQLVESGGGVVQPGRSLRLSCAASGFTFSNYAMYWVRQAPGKGLEWVAVISYDGSNKYYADSVKGRFTISRDNSKNTLYLQMNSLRTEDTAVYYCASGSDYGDYLLVYWGQGTLVTVSS
VL: QSALTQPASVSGSPGQSITISCTGTSSDVGGYNYVSWYQQHPGKAPKLMIYDVSKRPSGVSNRFSGSKSGNTASLTISGLQSEDEADYYCNSLTSISTWVFGGGTKLTVL
For the molecule B1, the binding result is given as “binds”.
